Assay results from IntAct's records for PubMed 35512704.

B1: Speckle-type POZ protein (Homo sapiens), O43791 (parent)
chain: MSRVPSPPPPAEMSSGPVAESWCYTQIKVVKFSYMWTINNFSFCREEMGEVIKSSTFSSGANDKLKWCLRVNPKGLDEESKDYLSLYLLLVSCPKSEVRAKFKFSILNAKGEETKAMESQRAYRFVQGKDWGFKKFIRRDFLLDEANGLLPDDKLTLFCEVSVVQDSVNISGQNTMNMVKVPECRLADELGGLWENSRFTDCCLCVAGQEFQAHKAILAARSPVFSAMFEHEMEESKKNRVEINDVEPEVFKEMMCFIYTGKAPNLDKMADDLLAAADKYALERLKVMCEDALCSNLSVENAAEILILADLHSADQLKTQAVDFINYHASDVLETSGWKSMVVSHPHLVAEAYRSLASAQCPFLGPPRKRLKQS
partner: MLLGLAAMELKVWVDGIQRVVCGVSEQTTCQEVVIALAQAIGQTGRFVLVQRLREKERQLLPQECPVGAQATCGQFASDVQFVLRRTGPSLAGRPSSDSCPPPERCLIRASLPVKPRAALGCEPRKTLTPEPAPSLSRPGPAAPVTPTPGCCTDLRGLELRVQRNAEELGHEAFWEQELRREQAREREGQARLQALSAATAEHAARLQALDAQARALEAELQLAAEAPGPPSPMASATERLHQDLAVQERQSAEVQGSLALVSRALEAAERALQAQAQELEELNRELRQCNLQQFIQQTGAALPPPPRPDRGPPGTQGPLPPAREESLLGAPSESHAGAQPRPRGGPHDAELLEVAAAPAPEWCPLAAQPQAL
B2: Speckle-type POZ protein (Homo sapiens), O43791 (parent)
chain: B1 chain
partner: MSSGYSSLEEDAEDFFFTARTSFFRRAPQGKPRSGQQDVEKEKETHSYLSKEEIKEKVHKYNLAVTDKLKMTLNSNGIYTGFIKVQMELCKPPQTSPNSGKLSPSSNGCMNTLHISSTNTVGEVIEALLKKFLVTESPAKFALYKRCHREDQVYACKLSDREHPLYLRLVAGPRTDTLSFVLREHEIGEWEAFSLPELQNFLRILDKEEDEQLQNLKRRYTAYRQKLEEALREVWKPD

Variants of: B1
Settings: with rasf7_human RASSF7, Q02833

Variant | effect of a mutation on the interaction
MSRVPSPPPPAEMSSGPVAESWCYTQIKVVKFSYMWTINNFSFCREEMGEVIKSSTFSSGANDKLKWCLRVNPKGLDEESKDYLSLYLLLVSCPKSEVRAKFKFSILNAKGEETKAMESQRAYRFVQGKDWGVKKFIRRDFLLDEANGLLPDDKLTLFCEVSVVQDSVNISGQNTMNMVKVPECRLADELGGLWENSRFTDCCLCVAGQEFQAHKAILAARSPVFSAMFEHEMEESKKNRVEINDVEPEVFKEMMCFIYTGKAPNLDKMADDLLAAADKYALERLKVMCEDALCSNLSVENAAEILILADLHSADQLKTQAVDFINYHASDVLETSGWKSMVVSHPHLVAEAYRSLASAQCPFLGPPRKRLKQS [F133V] | with no effect

Variants of: B1
Settings: with rasf7_human RASSF7, Q02833
Remark: another data set of the same source

Variant | effect of a mutation on the interaction
MSRVPSPPPPAEMSSGPVAESWCYTQIKVVKFSYMWTINNFSFCREEMGEVIKSSTFSSGANDKLKWCLRVNPKGLDEESKDYLSLYLLLVSCPKSEVRAKFKFSILNAKGEETKAMESQRAYRFVQGKDWGLKKFIRRDFLLDEANGLLPDDKLTLFCEVSVVQDSVNISGQNTMNMVKVPECRLADELGGLWENSRFTDCCLCVAGQEFQAHKAILAARSPVFSAMFEHEMEESKKNRVEINDVEPEVFKEMMCFIYTGKAPNLDKMADDLLAAADKYALERLKVMCEDALCSNLSVENAAEILILADLHSADQLKTQAVDFINYHASDVLETSGWKSMVVSHPHLVAEAYRSLASAQCPFLGPPRKRLKQS [F133L] | with no effect

Variants of: B1
Settings: with rasf7_human RASSF7, Q02833
Remark: another data set of the same source

Variant | effect of a mutation on the interaction
MSRVPSPPPPAEMSSGPVAESWCYTQIKVVKFSYMWTINNFSFCREEMGEVIKSSTFSSGANDKLKWCLRVNPKGLDEESKDYLSLYLLLVSCPKSEVRAKCKFSILNAKGEETKAMESQRAYRFVQGKDWGFKKFIRRDFLLDEANGLLPDDKLTLFCEVSVVQDSVNISGQNTMNMVKVPECRLADELGGLWENSRFTDCCLCVAGQEFQAHKAILAARSPVFSAMFEHEMEESKKNRVEINDVEPEVFKEMMCFIYTGKAPNLDKMADDLLAAADKYALERLKVMCEDALCSNLSVENAAEILILADLHSADQLKTQAVDFINYHASDVLETSGWKSMVVSHPHLVAEAYRSLASAQCPFLGPPRKRLKQS [F102C] | with no effect

Variants of: B1
Settings: with rasf7_human RASSF7, Q02833
Remark: another data set of the same source

Variant | effect of a mutation on the interaction
MSRVPSPPPPAEMSSGPVAESWCYTQIKVVKFSYMWTINNFSFCREEMGEVIKSSTFSSGANDKLKWCLRVNPKGLDEESKDYLSLCLLLVSCPKSEVRAKFKFSILNAKGEETKAMESQRAYRFVQGKDWGFKKFIRRDFLLDEANGLLPDDKLTLFCEVSVVQDSVNISGQNTMNMVKVPECRLADELGGLWENSRFTDCCLCVAGQEFQAHKAILAARSPVFSAMFEHEMEESKKNRVEINDVEPEVFKEMMCFIYTGKAPNLDKMADDLLAAADKYALERLKVMCEDALCSNLSVENAAEILILADLHSADQLKTQAVDFINYHASDVLETSGWKSMVVSHPHLVAEAYRSLASAQCPFLGPPRKRLKQS [Y87C] | with no effect

Variants of: B2
Settings: with rasf3_human RASSF3, Q86WH2

Variant | effect of a mutation on the interaction
MSRVPSPPPPAEMSSGPVAESWCYTQIKVVKFSYMWTINNFSFCREEMGEVIKSSTFSSGANDKLKWCLRVNPKGLDEESKDYLSLYLLLVSCPKSEVRAKFKFSILNAKGEETKAMESQRAYRFVQGKDWGVKKFIRRDFLLDEANGLLPDDKLTLFCEVSVVQDSVNISGQNTMNMVKVPECRLADELGGLWENSRFTDCCLCVAGQEFQAHKAILAARSPVFSAMFEHEMEESKKNRVEINDVEPEVFKEMMCFIYTGKAPNLDKMADDLLAAADKYALERLKVMCEDALCSNLSVENAAEILILADLHSADQLKTQAVDFINYHASDVLETSGWKSMVVSHPHLVAEAYRSLASAQCPFLGPPRKRLKQS [F133V] | with no effect

Variants of: B2
Settings: with rasf3_human RASSF3, Q86WH2
Remark: another data set of the same source

Variant | effect of a mutation on the interaction
MSRVPSPPPPAEMSSGPVAESWCYTQIKVVKFSYMWTINNFSFCREEMGEVIKSSTFSSGANDKLKWCLRVNPKGLDEESKDYLSLYLLLVSCPKSEVRAKFKFSILNAKGEETKAMESQRAYRFVQGKDWGLKKFIRRDFLLDEANGLLPDDKLTLFCEVSVVQDSVNISGQNTMNMVKVPECRLADELGGLWENSRFTDCCLCVAGQEFQAHKAILAARSPVFSAMFEHEMEESKKNRVEINDVEPEVFKEMMCFIYTGKAPNLDKMADDLLAAADKYALERLKVMCEDALCSNLSVENAAEILILADLHSADQLKTQAVDFINYHASDVLETSGWKSMVVSHPHLVAEAYRSLASAQCPFLGPPRKRLKQS [F133L] | with no effect

Variants of: B2
Settings: with rasf3_human RASSF3, Q86WH2
Remark: another data set of the same source

Variant | effect of a mutation on the interaction
MSRVPSPPPPAEMSSGPVAESWCYTQIKVVKFSYMWTINNFSFCREEMGEVIKSSTFSSGANDKLKWCLRVNPKGLDEESKDYLSLCLLLVSCPKSEVRAKFKFSILNAKGEETKAMESQRAYRFVQGKDWGFKKFIRRDFLLDEANGLLPDDKLTLFCEVSVVQDSVNISGQNTMNMVKVPECRLADELGGLWENSRFTDCCLCVAGQEFQAHKAILAARSPVFSAMFEHEMEESKKNRVEINDVEPEVFKEMMCFIYTGKAPNLDKMADDLLAAADKYALERLKVMCEDALCSNLSVENAAEILILADLHSADQLKTQAVDFINYHASDVLETSGWKSMVVSHPHLVAEAYRSLASAQCPFLGPPRKRLKQS [Y87C] | with no effect

Variants of: B2
Settings: with rasf3_human RASSF3, Q86WH2
Remark: another data set of the same source

Variant | effect of a mutation on the interaction
MSRVPSPPPPAEMSSGPVAESWCYTQIKVVKFSYMWTINNFSFCREEMGEVIKSSTFSSGANDKLKWCLRVNPKGLDEESKDYLSLYLLLVSCPKSEVRAKCKFSILNAKGEETKAMESQRAYRFVQGKDWGFKKFIRRDFLLDEANGLLPDDKLTLFCEVSVVQDSVNISGQNTMNMVKVPECRLADELGGLWENSRFTDCCLCVAGQEFQAHKAILAARSPVFSAMFEHEMEESKKNRVEINDVEPEVFKEMMCFIYTGKAPNLDKMADDLLAAADKYALERLKVMCEDALCSNLSVENAAEILILADLHSADQLKTQAVDFINYHASDVLETSGWKSMVVSHPHLVAEAYRSLASAQCPFLGPPRKRLKQS [F102C] | with no effect
